# Literature values in PMC8604983, “A glucagon analogue decreases body weight in mice via signalling in the liver” (Scientific Reports, 2021).
# Details: in rodents
# Protocol: Native glucagon has a half-life of approximately 2 min in rodents. To study the effects of sustained GCGR activation, we developed a glucagon analogue (GCG104) through modification of OXM with the aim of reducing its GLP-1R activity and decreasing its rate of clearance. Select amino acid substitutions were made and a C18 lipidated tail was added (Fig. 1a).
substance,measurement,value
glucagon [Native glucagon],half-life,approximately 2 min
